pKi: −log10 of the molar value. Read-outs that look alike come from different tables or passages of the source.
Experiments:
[1] = test system: serine proteinases; conditions: cited from earlier work
Description: A new peptide, HCIQ1c9, with Gly17Arg at position P1’ of the reactive site was also found in a combinatorial library of H. crispa Kunitz-type peptides and produced in E. coli. Thus, in this work four isoforms of Kunitz-type peptides with point a.a. substitutions were studied in various in vitro models.

[2] = molecular target: T1, trypsin (Bos taurus, UniProt P00760); conditions: cited from earlier work
T1 sequence (P00760 24-246): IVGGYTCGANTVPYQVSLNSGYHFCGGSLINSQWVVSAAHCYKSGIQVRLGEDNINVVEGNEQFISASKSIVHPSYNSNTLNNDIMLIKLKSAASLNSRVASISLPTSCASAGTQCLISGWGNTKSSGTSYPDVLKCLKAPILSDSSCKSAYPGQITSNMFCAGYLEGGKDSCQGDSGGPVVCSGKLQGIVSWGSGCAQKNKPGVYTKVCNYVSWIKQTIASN
Method: As mentioned above, the main function of Kunitz-type peptides is the inhibition of proteases, in particular trypsin. To confirm the bioactive conformation of HCIQ1c9, its ability to inhibit trypsin was determined. […] The decrease in trypsin-inhibitory activity of HCIQ1c9 and HCIQ4c7 in comparison with HCIQ2c1 is probably associated ... || The active spatial conformation of the peptides was also confirmed by the presence of trypsin-inhibitory activity. […] Thus, both negatively and positively charged residues at position P1’ led to decreases in the trypsin-inhibitory activity of the peptides, with HCIQ4c7 beings a stronger trypsin inhibitor than HCIQ1c9. This was due to the residue Glu17, which can make additional contact with ...

[3] = CD spectroscopy, secondary structural elements (Provencher–Glockner); assay type: physicochemical; set-up: unit not given here; conditions: deionized water, Provencher–Glockner method
Description: To calculate secondary structural elements of peptides, circular dichroism (CD) spectroscopy was applied. CD spectroscopy is a fast, well-established, and widely used analytical technique to study secondary structures of proteins and their changes in different environments. According to Figure 3, all spectra in the far UV region (190–240 nm) have similar profiles and are characterized by a positive maximum peak at 193 nm and negative minimum peaks at 202 and 225 nm. […] The peptides have an approximately equal content of secondary structural elements, while a slight increase in α-helixes and decrease in β-structure were found in HCIQ1c9 (Table 1), which might be reflected in the spatial structure and biological activity of the peptide.
Circular dichroism (CD) spectra were recorded on a Chirascan-Plus CD spectropolarimeter (Applied Photophysics, Leatherhead, UK) in quartz cuvettes with an optical path length of 0.1 cm for the peptide spectrum region. The peptides were dissolved in deionized water ([…]) and incubated at temperatures ranging from 25 °C to 100 °C for 20–25 min before recording the CD spectra. The secondary structure elements were calculated using the Provencher–Glockner method using advanced Provencher calculation programs from the CDPro software package (Leatherhead, UK).

[4] = test system: P2X7R; test: ATP-induced YO-PRO-1 uptake in Neuro-2a cells; assay type: cell-based, murine; conditions: 0.01–1.0 μM, 4 mM ATP
Method: Figure 11 The effects of the peptides on ATP-induced Neuro-2a cell viability and activation of P2X7R. (a) Impact of the peptides on Neuro-2a cell viability in the presence of 4 mM ATP. The peptides were tested at concentrations of 0.01, 0.1, and 1.0 μM. Cells were incubated with peptides for 1 h at 37 °C, then for 48 h with ATP. (b) Effects of the peptides (0.01, 0.1, and 1.0 μM) on YO-PRO-1 uptake in Neuro-2a cells. ATP was used as a P2X7R agonist. A438079 (10 μM) was used as a standard inhibitor of P2X7R. The peptide effects were evaluated against the effects of ATP. The data are shown as means ± SE; *—p < 0.05 compared to the effect of ATP alone.
For the uptake measurements of the large cationic dye YO-PRO-1, the peptides at final concentrations of 0.01, 0.1, and 1.0 μM were added to the culture medium with Neuro-2a cells and further incubated for 1 h at 37 °C with 5% CO2. Then, the cells were washed once with Hanks’ balanced salt solution (HBSS) (140 mM NaCl, 5 mM KCl, 0.8 mM MgCl2, 2 mM CaCl2, 10 mM glucose, 10 mM HEPES, pH 7.4) and filled with 180 μL of the same buffer. YO-PRO-1 (Sigma-Aldrich, St. Louis, MO, USA) was loaded into the wells to a final concentration of 5 μM, the cells were incubated for 15 min at 37 °C, then ATP was added to a final concentration of 4 mM and the plates were incubated for an additional 10 min. Then, the cells were washed three times with the buffer solution and the fluorescence intensity levels were measured with a PHERAstar FS plate reader (BMG, Germany) at λex = 480 nm and λem = 520 nm. A438079 (10 μM), a standard inhibitor of P2X7R, was used as positive control. The effectiveness of the peptides was evaluated relative to the control with ATP.

HCIQ2c1: recombinant Kunitz-type peptide from Heteractis crispa, UniProtKB ID A0A6B7FBD3 (IQGNICSEPKKVGRCRGSFPRFYFDSETGKCTPFIYGGCGGNGNNFETLHACRAICRA; UniProt A0A6B7FBD3 28-85, looked up)
interaction with serine proteinases [1]: interact with several serine proteinases, including inflammatory ones | pKi ([2]; as shown previously, ref not printed at place, read-out: inhibited trypsin at (order of magnitude)): ~8.00 | pKi ([2]; read-out: trypsin inhibitory constant (Ki)): 7.28 | Unordered Structure [3]: 35.7 | β-Turn [3]: 19.0 | α-Helix II ([3]; irregular structure): 13.9 | β-Structure II ([3]; irregular structure): 6.9 | β-Structure I ([3]; regular structure): 17.4 | α-Helix I ([3]; regular structure, far UV 190–240 nm): 7.1 | α-Helix III ([3]; summary value): 21.0 | β-Structure III ([3]; summary value): 24.3 | inhibition of ATP-induced YO-PRO-1 uptake [4]: inhibited ATP-induced dye uptake, but their effects were not statistically significant
